Results as given in PMC2773364.

Legend:
purified protein [1] = substrate: CC(C)C[C@H](NC(=O)OCc1ccccc1)C(=O)N[C@@H](Cc1ccc(O)cc1)C(=O)O; assay: purified protein; settings: 50 mM acetate buffer, pH 3.7, 30°C
purified protein [2] = substrate: O=C(O)CC[C@H](NC(=O)OCc1ccccc1)C(=O)N[C@@H](Cc1ccc(O)cc1)C(=O)O; assay: purified protein; settings: 50 mM acetate buffer, pH 3.7, 30°C

Protein	Km (purified protein [1]) [µM]	kcat (purified protein [1]) [s⁻¹]	kcat/Km (purified protein [1]) [M⁻¹ s⁻¹]	Km (purified protein [2]) [µM]	kcat (purified protein [2]) [s⁻¹]	kcat/Km (purified protein [2]) [M⁻¹ s⁻¹]
recombinant CpI (Aspergillus oryzae RIB40) (protein) LPGSTPASVGRRQLPKNPTGVKTLTTANNVTIRYKEPGAEGVCETTPGVKSYSGYVDTSPESHTFFWFFEARHNPETAPITLWLNGGPGSDSLIGLFEELGPCHVNSTFDDYINPHSWNEVSNLLFLSQPLGVGFSYSDTVDGSINPVTGVVENSSFAGVQGRYPTIDATLIDTTNLAAEAAWEILQGFLSGLPSLDSRVQSKDFSLWTESYGGHYGPAFFNHFYEQNERIANGSVNGVQLNFNSLGIINGIIDEAIQAPYYPEFAVNNTYGIKAVNETVYNYMKFANQMPNGCQDLISTCKQTNRTALADYALCAEATNMCRDNVEGPYYAFAGRGVYDIRHPYDDPTPPSYYNKFLAKDSVMDAIGVNINYTQSNNDVYYAFQQTGDFVWPNFIEDLEEILALPVRVSLIYGDADYICNWFGGQAVSLAANYSQAAQFRSAGYTPLKVNGVEYGETREYGNFSFTRVYEAGHEVPYYQPIASLQLFNRTIFGWDIAEGQKKIWPSYKTNGTATATHTQSSVPLPTATSMSSVGMA	340	30.3	89800	270	20.1	73200
recombinant OcpA (Aspergillus oryzae RIB40) (protein) YVNNSGICETTKGVNQYSGYLSVGENQNMFFWFFESRNNPQQAPLSAWFNGGPGCSSMIGLFQEHGPCHFVNGEDTPSLNEHSWNNFANMLYIDQPIGVGFSYGDNPVNSTWTAAPYVWKFLQAFYEHFPQYESRDFGIFTESYGGHYGPGFASYILDQNNAIEAGSQKGEKVNLVALGINNGMFDSTLQEKAYITFAYNNTYRQLIDESLKDKLLEAYESECLPAVQKCQQTQTNEDCQNAGSVCGESVENPIMQAGGDFDVYDVREPSNDPNPPETYSKYIARPDIMKAIGARSDYQECADAPGQKFGATGDEYRSTLPDLSEVIKAGVNVLVWAGTADYICNVDGSIAVANAVDFSGHDEFQGKALEAYKVNGKEVGQFKSVDNFHLLTVYDAGHEVPYYQPETALQAFTQILQKKPLSST	410	18	43900	260	22.7	85900
